According to patent publication USRE43568:

Legend:
[1] = molecular target: human complement C3 (from human pooled serum) (human) (UniProt P01024); experiment: C3 ELISA, antibody coated, human pooled serum added
[2] = molecular target: Fcγ receptors on granulocytes (FcγRII and RIII) (human); experiment: FACS on human granulocytes, antibody 10 µg/ml
[3] = molecular target: Fcγ receptors on monocytes (FcγRI and RII) (human); experiment: FACS on human monocytes, antibody 10 µg/ml

## HuMab 002 Fc variant IgG1v2 (L234A; L235A) (antibody)
[1]
  Bmax (OD405 at 10 µg/ml): 0.133 OD405

## HuMab 002 Fc variant IgG4v1 (S228P; L235E) (antibody)
[2]
  % granulocytes binding antibody: 1.6%
[1]
  Bmax (OD405 at 10 µg/ml): 0.104 OD405
[3]
  % monocytes binding antibody: 14.5%

## human IgG4 (CLB, the Netherlands), negative control (antibody)
[3]
  % monocytes binding antibody: 9.4%
